Test [1] addresses T1, CD28-Ig (Homo sapiens, UniProt P10747). Briefly: ELISA binding of biotinylated fusion proteins to immobilized CD28-Ig. Also noted: native leader and extracellular domain peptide of CD28 and CD80 were grafted onto a human IgG1 heavy chain Fc region; human IgG1 Fc (hinge/CH2/CH3); made in house; host or cells: CHO cells. Particulars: for binding to immobilized CD28-Ig: biotinylated protein, ELISA. The protocol:
For this assay format, the CD80-Igαtp protein was biotinylated for simplicity of assay and for ease of detection since the CD28 protein absorbed to the plate wells was also a human Ig fusion construct. Biotinylation was carried out essentially as described in Avidin-Biotin Chemistry: A handbook, M. D. Savage et al., Pierce Chemical Company (1992). […] All steps of the assay after coating were carried out at room temperature.
The wells of 96 well microtiter plates (Immunlon 4, Dynatech Laboratories) were coated with CD28-Ig (1, 2, or4 μg/ml) in 100 μl/well of 0.1 M sodium bicarbonate, pH 9.4 and incubated overnite @4° C. The wells were washed with PBS (phosphate buffered saline) and blocked with 0.5% gelatin in PBS for 1 hour. Following an additional PBS wash, biotinylated CD80-Igαtp was serially diluted in PBS containing 1 mg/ml BSA, 0.05% Tween directly in the wells in a final volume of 0.1 ml and incubated for 1 hour. The wells were washed with PBS and bound CD80-Igαtp protein was measured by the addition of 0.1 ml of strepavidin-HRP (streptavidin conjugated with horseradish peroxidase (Southern Biotech)) at a 1:2000 dilution for 1 hour, followed by washing and color development with 100 μl ABTS substrate (Kierkegaard and Perry Laboratories Inc., Maryland) and measurement of absorbance at 405 nm. In some cases the color reactions were arrested by addition of 100 μl of 1% SDS prior to measurement of absorbance. In this figure, “CD28-Fc”, “CTLA4-Fc”, and “B7-FcA” denote CD28-Ig, CTLA4-Ig, and CD80-Igαtp, respectively.
(ELISA stands for enzyme-linked immunosorbent assay.)

Test [2] has as its target T2, human CD28 on PCD28.1.s2.1 cells (Homo sapiens, UniProt P10747).
T2 construct: expressed in transfected cells; host or cells: PCD28.1.s2.1 (PE30.2 murine T-cell hybridoma transfected with pHbactCd28neo)
Nature of the test: Flow cytometry binding to cells expressing cell-surface CD28. The test is classed as cell-based. Particulars: on ice. The protocol:
Non-adherent CD28 expressing cells (PCD28.1.s2.1) were used for this assay format. PCD28.1.S2.1 cells were created by transfection of PE30.2 cells [D. Emilie et al., Eur. J. Immunol., 19:1619-1624 (1989)] with a vector for expression of human CD28 [D. Couez et al., Molecular Immunology, 31:47-57 (1994)]. All incubations were carried out on ice. Unlabelled CD80- and CD86-Igαtp or CD80 and CD86-Ig were incubated with the cells in binding buffer consisting of PBS w/o Ca+2/Mg+2, 0.2% bovine serum albumin and 0.1 % sodium azide. After washing twice in binding buffer, bound fusion proteins were detected with a 1:2000 dilution of a goat anti-human polyclonal antibody labeled with FITC (Flourescein isothiocyanate, Southern Biotech). Following two additional washes in binding buffer, the cells were resuspended in binding buffer and analyzed on a FACSort analyzer (Becton-Dickinson) using a 488 nm laser.
A general note: Flow cytometry measures light scatter and fluorescence of single cells or particles in a stream.

Test [3] concerns the target T1, CD28-Ig. Also noted: Ig fusion partner. As to conditions: read-out: approximate Kd of soluble CD80-Ig binding to immobilized CD28-Ig; Linsley et al. 1991; cited from earlier work.
Test [4] concerns the target T3, CTLA4-Ig (Homo sapiens, UniProt P16410, F162A).
T3 construct: junction spanning the end of the CTLA4 extracellular domain and the hinge region; human IgG1 Fc (hinge/CH2/CH3); made in house; host or cells: CHO cells (by 'in a similar manner' to CD28-Ig)
Briefly: Isothermal titration calorimetry, binding to CTLA4-Ig in solution. The source says:
The solution binding properties of the hexameric and standard Ig fusion proteins of CD80 and CD86 were compared using isothermal titration calorimetry, essentially as described previously for other proteins [K. Johanson et. al., J. Biol. Chem, 270: 9459-9471 (1995), and references therein].
The error in Kd's is about a factor of 2 and the error in molar binding ratio's is 10-20%. […] The molecular masses of CD80-Igαtp and CD86-Igαtp were estimated as 6× the mass of the respective Ig proteins plus 40,000 Da. contributed by the twelve tailpiece segments.
On the technique in general: Isothermal titration calorimetry measures the heat released or taken up as one component is titrated into another.

T3 sequence (P16410 38-162 F162A): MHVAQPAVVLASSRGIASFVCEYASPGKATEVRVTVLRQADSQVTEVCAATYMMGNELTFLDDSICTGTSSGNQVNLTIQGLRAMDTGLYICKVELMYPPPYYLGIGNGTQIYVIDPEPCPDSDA

With “CD80-Ig: CD80 leader and extracellular domain grafted onto human IgG1 heavy chain Fc region; monomeric Ig fusion (Ig homodimer) [reference compound]”, the “binding to immobilized CD28-Ig” value in test [1] was “little binding and only at much higher concentrations”. Also, in test [2], the “binding to CD28 positive cells” value is “no binding”. The Kd in test [3] was approximately 0.2 µM.

As for “CD80-Igαtp: CD80 leader and extracellular domain linked to human IgG1 hinge/CH2/CH3 and terminating in human IgA1 tailpiece (αtp)”, the “ratio of Igαtp to Ig titration equivalence points (molar ratio)” value in test [4] is on record as “about 6”. For the same substance, in test [1] (biotinylated CD80-Igαtp at 50 μg/ml), the “saturation of OD405” value was “about 50%”. In addition, the “binding to immobilized CD28-Ig” value in test [1] is recorded as “concentration dependent binding”. In test [2], the “binding to CD28 positive cells” value is “specific binding”.

Regarding “CD86-Igαtp: CD86 leader and extracellular domain linked to human IgG1 Fc and terminating in human IgA1 tailpiece (αtp)”, the “binding to immobilized CD28-Ig” value in test [1] was “good binding”. The “binding to CD28 positive cells” value in test [2] was “specific binding”.

Usually Kd stands for the free concentration of one partner at which half of the binding sites on the other are occupied at equilibrium, for simple one-to-one binding.

Source of the values: patent US20020147326A1, “Hexameric fusion proteins and uses therefor” (SmithKline Beecham Corporation, priority 1996, published 2002).
